Non-standard residues stand in square brackets, D forms with d. Phe(4-F) = N[C@@H](Cc1ccc(F)cc1)C(=O)O
B1: H-Arg-Arg-Leu-(p-F-Phe)-NH2 (peptide)
peptide: H-RRL[Phe(4-F)]-NH2
SMILES: CC(C)C[C@H](NC(=O)[C@H](CCCNC(=N)N)NC(=O)[C@@H](N)CCCNC(=N)N)C(=O)N[C@@H](Cc1ccc(F)cc1)C(N)=O

Biological target: CDK2/cyclin A complex (human, UniProt P24941 1-298; P20248 173-432)
Experiment: cell-based or functional assay

Binder | CDK2/cyclin A kinase activity IC50 [µM]
B1 | 50
Ac-RRLNF-NH2 [Ac-Arg-Arg-Leu-Asn-Phe-NH2] | > 50

From US20050260730A1 (published 2005)
